Tests used:
[1] = test system: human primary normal lymphocytes; experiment: Effect on normal human primary lymphocytes in vitro (MTS); type: cell-based
Procedure: (§1) After treatment, MTS reagent (Promega, USA) was then added and reacted for 2-4 hours and the absorbance values (OD value) of each well were read by using an automatic multi-well spectrophotometer, Wellscan MK3 (Thermo Labsystems, Finland) at the wavelength of 492 nm. OD value of no cell wells is considered as “0,” and the survival rate of the cells is equal to ratio of OD value of treated wells to OD value of control wells.

[2] = test system: human leukemia, liver and lung cancer cells; experiment: Suppression of tumor formation and growth of human tumor cells in nude mice; type: in vivo; conditions: compared to the control group
Procedure: (§2) The dose was 15 mg/kg, three times administration in total. The mice of negative control group (n=8) were administrated with physical saline. The mice of positive control group (n=5) were administrated with cyclophosphamide (CTX, 60 mg/kg). […] Three weeks later, the mice were sacrificed and the growth of tumor was determined by the weight of the tumor mass.

[3] = target: T1, recombinant human DR4 extracellular domain protein (Homo sapiens, UniProt O00220); experiment: ELISA cross-reactivity of AD5-10 with DR4; type: binding
T1 construct: recombinant human DR4 or DR5 extracellular domain protein expressed in E. coli; made in house; host or cells: E. coli
Procedure: ELISA was used for testing the specific combination of AD5-10 with its anitgen. ELISA plates (Costar, USA) were coated with recombinant human DR4 or DR5 extracellular domain protein expressed in E. coli over night, blocked with 5% nonfat milk at room temperature for two hours. […] The absorbency at 492 nm was measured on a microtiter reader of enzyme-labelled machine, Wellscan MK3 (Thermo Labsystems, Finland).

[4] = test system: tumor cells such as liver and lung cancer; experiment: Synergy of tumoricidal activity with TRAIL; type: cell-based; conditions: combined with TRAIL
[5] = test system: liver cancer cells SMMC-7721; experiment: Tumoricidal activity in vivo, SMMC-7721 cells in nude mice; set-up: species or system nude mice BALB/c; conditions: SMMC-7721 in nude mice
Procedure: as §2

Jurkat cells = experiment: Western blot of caspase activation and PARP cleavage; type: cell-based, human
Procedure: After the collected cells were lysed in cell cleavage solution, SDS-PAGE was used, the proteins separated in the gel were subsequently electrotransferred onto a polyvinylidene difluoride (PVDF) membrane. The membrane was then incubated with the indicated primary antibodies (Santa Cruz, USA) and probed with HRP-conjugated secondary antibodies (Beijing Zhongshan Co.). The proteins were visualized by ECL Plus Western Blotting Detection System (Amersham Biosciences, USA).

[6] = test system: leukemia, liver and lung cancer cells; experiment: Tumoricidal activity in vitro (MTS cell viability); type: cell-based, human
Procedure: as §1

T1 sequence (O00220 24-239 limits assumed): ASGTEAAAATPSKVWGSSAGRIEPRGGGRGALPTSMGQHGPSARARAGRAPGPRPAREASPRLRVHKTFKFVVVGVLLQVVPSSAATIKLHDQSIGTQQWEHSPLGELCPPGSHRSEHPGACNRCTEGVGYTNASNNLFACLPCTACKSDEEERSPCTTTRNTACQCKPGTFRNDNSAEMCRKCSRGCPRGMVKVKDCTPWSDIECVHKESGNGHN

B1: AD5-10: murine monoclonal antibody against human TRAIL receptor DR5, subtype IgG3κ, VL SEQ ID No. 1, VH SEQ ID No. 2, hybridoma CGMCC 1192 (antibody, V domains shown)
VH: QIQLVQSGPELKKPGETVKISCKASGYTFTDFSMNWVKQAPGKGLKWMGWINTETGEPTYADDFKGRFALSMETSASTAYLQINNLKNEDTATYFCVRIDYWGQGTTLTVSS
VL: DVVMTQTPLSLPVSLGDQASISCRSSQSLVHSNGNTYLHWYLQKPGQSPKLLIYKVSNRFSGVPDRFSGSGSGTDFTLKISRVEAEDLGVYFCFQSTHVPHTFGGGTKLEIKR
modifications: mus musculus
In the case of B1, the “toxicity to normal lymphocytes” value [1] is reported as “without toxicity to human primary normal lymphocytes in vitro”, the inhibition rate [2] is reported as “about 80%” and the “cross-reaction with death receptor DR4” value [3] is reported as “does not cross-react”. The “death and abnormalism in appetite, function, skin and hair” value (Toxicity study in mice; 150 mg/kg, 1 and 2 month's observation) was “does not cause observably death”, the “histological analysis of organs” value (Toxicity study in mice; mice, organs such as liver) was “no pathological changes” and the “synergy with TRAIL” value [4] was “can synergize the tumoricidal activity with TRAIL”. The tumor formation ([5]; early treatment) was “inhibits the tumor formation”, the tumor growth ([5]; late treatment) was “inhibites the tumor growth” and the “caspase cascade activation and PARP cleavage” value (Jurkat cells) was “activates caspase cascade and PARP (poly ADP-ribose polymerase) cleavage”. For the same molecule, the “killing of tumor cells” value [6] was “kills leukemia, liver and lung cancer cells with dose-dependent manner”.

From patent publication US7893216B2 (The Institute of Basic Medical Sciences of Chinese Academy …, priority 2004, dated 2011)
